Assay [1] concerns the target T1, human CD123 (IL3Rα) on cells (human, UniProt P26951 19-378).
T1 construct: whole, on cells; also called human IL3Rα expressed on 293 cells; AD293hIL3Rα
In words: flow cytometry on Ad293 cells expressing human IL3Ra, geometric mean. In general terms: A flow cytometer gives signals particle by particle.

Assay [2] concerns the target T2, human IL3Rα (CD123), sample in solution for biolayer interferometry (human, UniProt P26951 19-305, limits assumed).
T2 construct: Soluble analyte in the Octet assay; also called hIL3-Rα; hIL3Rα
T2 sequence (looked up): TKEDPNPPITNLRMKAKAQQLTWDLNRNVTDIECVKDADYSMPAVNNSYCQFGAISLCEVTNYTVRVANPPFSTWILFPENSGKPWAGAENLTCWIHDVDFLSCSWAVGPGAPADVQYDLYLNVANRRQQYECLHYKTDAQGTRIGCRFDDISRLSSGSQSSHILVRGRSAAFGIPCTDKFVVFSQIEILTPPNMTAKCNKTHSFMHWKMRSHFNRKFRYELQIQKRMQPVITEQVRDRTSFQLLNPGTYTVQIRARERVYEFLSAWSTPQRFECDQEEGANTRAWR
The experiment in a line: kinetic binding curves, antibody on the sensor, human CD123 in solution. As to the method: Biolayer interferometry binding experiments were performed using an Octet RED384 instrument, with all measurements made at 30° C. AHC biosensor probes were soaked in kinetics buffer (PBS pH 7.2+0.02% Tween-20, 0.1% BSA, 0.05% sodium azide) for 10 minutes, followed by baseline signal measurement in kinetics buffer for 60 seconds. […] For binding to hIL3-Rα, the antibody-loaded biosensor tips were dipped in binding buffer for 60 sec (baseline), followed by immersion in a solution containing dilutions of hIL3-Rα (10-0.16 μg/mL) for 300 sec (association), and subsequent immersion in kinetics buffer for 400 sec (dissociation). For binding to hIL5-Rα and GM-CSFRa, all steps were the same except the concentration of antigen was increased (50-1.56 μg/mL) and the dissociation step was decreased to 300 sec. The signal from a buffer only reference sample was subtracted, and all curves were fit with a 1:1 binding model to determine KD values.

Assay [3] addresses T1, human CD123 (IL3Rα) on cells. In words: flow cytometry on THP-1 CD123 (no dox) cells, Geo MFI. As to the method:
(§1) THP-1 cells were transfected with an IL3Rα expression construct under the control of a doxycycline inducible promoter. THP-1 cells were maintained in DMEM containing 10% heat-inactivated fetal bovine serum (FBS) and were cultured in a humidified atmosphere of 5% CO₂ and at a temperature of 37° C. […] (Dox) inducible cells were stimulated with 1 μg/ml dox overnight before use. […] On the day of plating, cells were spun down at 1500 rpm for 3 minutes, counted, and resuspended to a final concentration of 1×10⁶ cells/ml. Two hundred μl of cells were plated in wells of 96 well microtiter plates. The plates were spun down at 1500 rpm for 3 minutes and flicked to remove media. One hundred μl of FACS buffer (PBS+2% FBS) was added to each well. […] The antibody concentration started at 12 μg/ml followed by six 1:3 dilutions (no antibody control was also run). The plates were incubated at 4° C. for 30 minutes. Following incubation, the plates were washed 3 times by spinning down at 1500 rpm for 3 minutes, flicked and 100 μl of FACs buffer was added. Alexa 647 secondary antibody (goat anti-human IgG (H+L)) was added at 1:1000 dilution in 100 μl followed by 30 minute 4° C. incubation. The plates were washed as above. […] Cells were analyzed on a BD Bioscience LSRII by collecting 10,000 cells. Flow data was analyzed in FlowJo software.

Assay [4] has the same target. In words: flow cytometry on THP-1 CD123(+dox) cells, Geo MFI. How it is done: as §1
Assay [5] shares this target. In words: flow cytometry on OCI-AML5 cells, geometric mean.
Assay [6] shares this target. The experiment in a line: flow cytometry on Mv411 cells, geometric mean.

Substitutions are numbered along the chain they refer to.

B1: HT31-GL (antibody, V domains shown)
VH: EVQLLESGGGLVQPGGSLRLSCAASGFTFSIYAMSWVRQAPGKGLEWVSAISGGGDSTYYADSVKGRFTISRDNSKNTLYLQMNSLRAEDTAVYYCAKDRGFYYGMDVWGQGTTVTVSS
VL: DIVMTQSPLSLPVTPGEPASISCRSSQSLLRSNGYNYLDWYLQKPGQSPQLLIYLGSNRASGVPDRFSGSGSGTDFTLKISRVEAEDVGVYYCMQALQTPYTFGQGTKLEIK
notes: member of m17
For B1, in assay [1], the binding result is recorded as “binds”.

B2: J13 antibody (antibody, V domains shown)
VH: B1 VH with L5V, A23V, A24V, I31S, G54S, I70F, A97T, T114M
VL: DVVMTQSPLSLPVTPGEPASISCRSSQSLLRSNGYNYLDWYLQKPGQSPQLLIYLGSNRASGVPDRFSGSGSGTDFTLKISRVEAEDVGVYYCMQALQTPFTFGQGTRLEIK
notes: also called Antibody J13
As to B2, the binding result in assay [2] is reported as “binds”.

B3: HT12-GL-SG3932 (antibody, human IgG1, kappa, V domains shown)
VH: B1 VH with S30N, S35T, A50G, G53A, F102Y
VL: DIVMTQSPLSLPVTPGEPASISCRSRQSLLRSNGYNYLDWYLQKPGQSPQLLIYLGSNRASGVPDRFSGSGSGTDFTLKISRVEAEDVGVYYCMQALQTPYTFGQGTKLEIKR
modifications: SG3932 drug-linker on Cysteine 214 (EU numbering); SG3932 drug-linker (maleimide, succinimidyl thioether) on reduced cysteines; Cysteine 220, Cysteine 226 and Cysteine 229 (EU numbering) named as conjugation sites; DAR 8
notes: also called HT12-GL ADC; CD123 ADC
What is called EC50 (read off the curve) is the concentration that produces a half-maximal response. Read a low EC50 (read off the curve) as greater potency. As for B3, the “EC50 (read off the curve)” value is about 0.1 µg/mL in assay [3] and about 0.3 µg/mL in assay [4].

B4: HT16-GL (antibody, V domains shown)
VH: B1 VH with I31N, S35T, S57T, F102Y
VL: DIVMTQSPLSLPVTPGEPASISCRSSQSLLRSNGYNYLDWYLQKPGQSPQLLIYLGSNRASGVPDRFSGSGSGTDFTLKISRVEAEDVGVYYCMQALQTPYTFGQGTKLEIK
notes: member of m17
For the molecule B4, the binding result in assay [1] is “binds”.

B5: HT7-GL (antibody, V domains shown)
VH: B1 VH with I31H, S57R, Y59F
VL: not shown
notes: member of m17
B5: in assay [1], the binding result was “binds”.

B6: HT34-GL-L (antibody, V domains shown)
VH: B1 VH with I31H, S35T, S57T, N77T, F102Y
VL: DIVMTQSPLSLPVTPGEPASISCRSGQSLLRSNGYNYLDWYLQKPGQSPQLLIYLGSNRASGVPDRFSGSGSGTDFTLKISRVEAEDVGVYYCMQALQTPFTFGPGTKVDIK
notes: member of m17
For the molecule B6, the binding result in assay [1] is listed as “binds”.

B7: HT30-GL (antibody, V domains shown)
VH: B1 VH with S52T, G53A, S57T, D62V, F102Y
VL: not shown
notes: member of m17
In the case of B7, the binding result in assay [1] is reported as “binds”.

B8: HT38-GL (antibody, V domains shown)
VH: B1 VH with I31S, A61T
VL: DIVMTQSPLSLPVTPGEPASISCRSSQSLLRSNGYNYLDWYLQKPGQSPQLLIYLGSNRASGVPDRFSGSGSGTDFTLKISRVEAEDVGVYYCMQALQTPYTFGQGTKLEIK
notes: member of m17
As for B8, in assay [5], the binding result is reported as “binds”.

B9: HT10-GL (antibody, V domains shown)
VH: B1 VH with I31H, S35T, V48I, F102Y, V108D
VL: not shown
notes: member of m17
B9: in assay [1], the binding result is given as “binds”.

B10: HT4-GL (antibody, V domains shown)
VH: B1 VH with Y60N, F102Y, D107V
VL: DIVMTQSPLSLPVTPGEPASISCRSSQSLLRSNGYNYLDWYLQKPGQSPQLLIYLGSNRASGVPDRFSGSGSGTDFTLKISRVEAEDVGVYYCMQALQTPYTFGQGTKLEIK
notes: member of m17
For B10, in assay [1], the binding result is “binds”.

B11: HT14-GL (antibody, V domains shown)
VH: B1 VH with S30N, S35T, A50G, I70M, F102Y
VL: DIVMTQSPLSLPVTPGEPASISCKSRQSLLRSNGYNYLDWYLQKPGQSPQLLIYLGSNRASGVPDRFSGSGSGTDFTLKISRVEAEDVGVYYCMQALQTPYTFGQGTKLEIK
notes: member of m17
Consider B11, for which the binding result in assay [1] is recorded as “binds”.

B12: HT32-GL (antibody, V domains shown)
VH: B1 VH with I31S, S57T
VL: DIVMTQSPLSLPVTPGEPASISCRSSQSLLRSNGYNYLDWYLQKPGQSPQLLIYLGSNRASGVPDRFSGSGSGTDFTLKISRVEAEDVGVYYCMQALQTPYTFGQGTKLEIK
notes: member of m17
Consider B12, for which, in assay [1], the binding result is recorded as “binds”.

B13: HT38-GL-Q (antibody, V domains shown)
VH: B1 VH with I31S, A61T
VL: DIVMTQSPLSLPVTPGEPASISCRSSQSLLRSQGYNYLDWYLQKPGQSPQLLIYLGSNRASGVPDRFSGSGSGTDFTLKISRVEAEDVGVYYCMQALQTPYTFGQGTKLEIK
notes: member of m17
Consider B13, for which the binding result in assay [5] is on record as “binds”.

B14: HT37-GL-L (antibody, V domains shown)
VH: B1 VH with S35T, G53A, S57N, Y60N, N77I, F102Y
VL: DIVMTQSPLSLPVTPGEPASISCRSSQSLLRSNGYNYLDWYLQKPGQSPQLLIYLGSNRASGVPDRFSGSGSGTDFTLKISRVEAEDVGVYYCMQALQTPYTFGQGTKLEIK
notes: member of m17
Take B14: in assay [5], the binding result is given as “binds”.

B15: HT36-GL (antibody, V domains shown)
VH: B1 VH with S57T, I70S, Y95F
VL: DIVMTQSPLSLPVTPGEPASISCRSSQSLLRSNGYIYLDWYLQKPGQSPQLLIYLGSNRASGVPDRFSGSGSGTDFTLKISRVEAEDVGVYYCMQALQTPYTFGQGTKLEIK
notes: member of m17
Take B15: the binding result in assay [1] was “binds”.

B16: HT8-GL (antibody, V domains shown)
VH: B1 VH with S57T, V64M, F102Y
VL: not shown
notes: member of m17
Consider B16, for which the binding result in assay [1] is on record as “binds”.

B17: HT6-GL (antibody, V domains shown)
VH: B1 VH with S30N, I31S, I51V, S57T, D62E, F102Y, D107A
VL: B11 VL with K24R, R26S, N36H, S61P
notes: member of m17
Take B17: in assay [1], the binding result was “binds”.

B18: HT37-GL (antibody, V domains shown)
VH: B1 VH with S35T, G53A, S57N, Y60N, F102Y
VL: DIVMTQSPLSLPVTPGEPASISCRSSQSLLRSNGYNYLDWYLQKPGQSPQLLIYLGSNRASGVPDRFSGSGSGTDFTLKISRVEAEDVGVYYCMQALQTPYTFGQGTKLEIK
notes: member of m17
For the molecule B18, the binding result in assay [6] was “binds”.

B19: HT29-GL (antibody, V domains shown)
VH: B1 VH with T28A, I31H, F102Y
VL: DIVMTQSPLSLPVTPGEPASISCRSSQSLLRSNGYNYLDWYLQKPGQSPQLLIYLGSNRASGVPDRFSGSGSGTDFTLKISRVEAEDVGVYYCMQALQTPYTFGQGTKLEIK
notes: member of m17
For the molecule B19, the binding result in assay [1] is given as “binds”.

B20: HT35-GL (antibody, V domains shown)
VH: B1 VH with I31H, S35T, V48I, F102Y
VL: not shown
notes: member of m17
Regarding B20, in assay [1], the binding result is recorded as “binds”.

B21: HT33-GL (antibody, V domains shown)
VH: B1 VH with S30G, I31H, S57Y, F68L, F102Y
VL: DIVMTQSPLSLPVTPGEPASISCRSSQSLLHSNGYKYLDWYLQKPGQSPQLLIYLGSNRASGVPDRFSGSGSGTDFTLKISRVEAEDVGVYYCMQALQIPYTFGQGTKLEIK
notes: member of m17
As for B21, in assay [1], the binding result is given as “binds”.

(Values after patent US20250051463A1 (AstraZeneca / MedImmune, published 2025).)
